Experimental findings from publication PMC5166498 (The Journal of Cell Biology, 2016) are described below.

For this test, the target named is T1, 6×His::UNC-84(912–1,111) (C. elegans, UniProt Q20745 912-1111).
T1 sequence (looked up): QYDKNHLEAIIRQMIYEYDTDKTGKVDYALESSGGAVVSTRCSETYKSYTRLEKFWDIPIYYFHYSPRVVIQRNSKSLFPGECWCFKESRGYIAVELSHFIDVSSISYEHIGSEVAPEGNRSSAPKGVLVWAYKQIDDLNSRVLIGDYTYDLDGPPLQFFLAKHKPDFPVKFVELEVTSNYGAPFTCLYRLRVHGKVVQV
Kind of test: SEC. For orientation: Size exclusion chromatography separates by hydrodynamic size, large species first.

As to ASILVLGFLVFIAWMFININSALNAPPNA (domain or fragment, C. elegans, UniProt Q23529 749-777, looked up) [MBP::ZYG-12(749–777)], the binding result is given as “binds”.
